Some targets named below: HLA-A*02:06; HLA-A*02:02; HLA-A*68:02; HLA-A*02:03; HLA-A*02:01.
Common to all, as to experiment: IEDB peptide-MHC binding, cellular MHC/competitive/fluorescence; ≥ and ≤ were set here for values at or beyond the usual limits of such assays
[1] abbreviates: source organism: Influenza A virus.
[2] abbreviates: source organism: Mammarenavirus brazilense.
[3] abbreviates: source organism: Vaccinia virus WR.
The mark [4] stands for this setting: source organism: Mammarenavirus guanaritoense.
The mark [5] stands for this setting: source organism: Hepacivirus hominis.

By IC50 is commonly meant the midpoint of a concentration-inhibition curve. Low readings indicate greater potency in that assay, high ones weaker potency in that assay.

On to IAYERMCNIL, for which the 50% inhibitory concentration (IC50) with HLA-A*02:06 (setting [1]) was 7.91 µM; in the experiment with HLA-A*02:02 (setting [1]), 24 µM; with HLA-A*68:02 (setting [1]) it was 24.6 µM; with HLA-A*02:03 (setting [1]) it was 16.5 µM; with HLA-A*02:01 (setting [1]), at least 70 µM.

As to ICFWSTLFFT, the IC50 in the experiment with HLA-A*02:06 (setting [2]) turned out to be 34.9 µM; with HLA-A*02:02 (setting [2]), 33.2 µM; with HLA-A*68:02 (setting [2]), 47.6 µM; in the experiment with HLA-A*02:03 (setting [2]), 35.1 µM; in the experiment with HLA-A*02:01 (setting [2]) it was 11.9 µM.

On to IILFQNNDI, for which the IC50 stood at 12.1 µM in the experiment with HLA-A*02:06 (setting [3]); 11.3 µM in the experiment with HLA-A*02:02 (setting [3]); 23.8 µM in the experiment with HLA-A*68:02 (setting [3]); 52.3 µM with HLA-A*02:03 (setting [3]); 13.5 µM with HLA-A*02:01 (setting [3]).

As to IIRVTTELNI, the IC50 with HLA-A*02:06 (setting [3]) came out at 13.7 µM; in the experiment with HLA-A*02:02 (setting [3]) it was 9.96 µM; with HLA-A*68:02 (setting [3]) it was 16.4 µM; with HLA-A*02:03 (setting [3]), 8.76 µM; with HLA-A*02:01 (setting [3]) it was 7.07 µM.

With ILLRAFTEEGA, the 50% inhibitory concentration (IC50) with HLA-A*02:06 (setting [1]) was 26.3 µM; with HLA-A*02:02 (setting [1]), 9.59 µM; with HLA-A*68:02 (setting [1]), at least 70 µM; with HLA-A*02:03 (setting [1]), 26.5 µM; with HLA-A*02:01 (setting [1]) it was 11.9 µM.

Consider ITDQTVNICI, for which the IC50 in the experiment with HLA-A*02:06 (setting [3]) is 10.4 µM; with HLA-A*02:02 (setting [3]), at least 70 µM; in the experiment with HLA-A*68:02 (setting [3]), 51.2 µM; with HLA-A*02:03 (setting [3]) it was at least 70 µM; with HLA-A*02:01 (setting [3]) it was 7.2 µM.

Take ITETIPIGM: the IC50 with HLA-A*02:06 (setting [3]) was 7.69 µM; with HLA-A*02:02 (setting [3]), 12.4 µM; with HLA-A*68:02 (setting [3]), 6.13 µM; with HLA-A*02:03 (setting [3]) it was 42.8 µM; in the experiment with HLA-A*02:01 (setting [3]), at least 70 µM.

As to ITGNKVKTEL, the IC50 in the experiment with HLA-A*02:06 (setting [3]), with HLA-A*02:02 (setting [3]), with HLA-A*68:02 (setting [3]), in the experiment with HLA-A*02:03 (setting [3]) and with HLA-A*02:01 (setting [3]) was at least 70 µM in each case.

For the sequence KAMHDKKIDI, the IC50 is 26.4 µM with HLA-A*02:06 (setting [3]); at least 70 µM with HLA-A*02:02 (setting [3]); at least 70 µM with HLA-A*68:02 (setting [3]); 46.2 µM with HLA-A*02:03 (setting [3]); 50.6 µM with HLA-A*02:01 (setting [3]).

KIQLFSDFTI: the concentration for half-maximal inhibition (IC50) with HLA-A*02:06 (setting [3]), with HLA-A*02:02 (setting [3]), with HLA-A*68:02 (setting [3]), with HLA-A*02:03 (setting [3]) and with HLA-A*02:01 (setting [3]) was at least 70 µM throughout.

In the case of KLTKDRKML, the IC50 was at least 70 µM with HLA-A*02:06 (setting [3]); 24.5 µM with HLA-A*02:02 (setting [3]); at least 70 µM with HLA-A*68:02 (setting [3]); 36.4 µM with HLA-A*02:03 (setting [3]); 56.6 µM in the experiment with HLA-A*02:01 (setting [3]).

As for KNAGYLVGR, the IC50 with HLA-A*02:06 (setting [4]) was at least 70 µM; in the experiment with HLA-A*02:02 (setting [4]), 45.7 µM; in the experiment with HLA-A*68:02 (setting [4]) it was at least 70 µM; with HLA-A*02:03 (setting [4]), at least 70 µM; with HLA-A*02:01 (setting [4]), 23 µM.

Regarding KTEHCDDFMT, the 50% inhibitory concentration (IC50) was 11.6 µM with HLA-A*02:06 (setting [3]); 7.82 µM with HLA-A*02:02 (setting [3]); at least 70 µM in the experiment with HLA-A*68:02 (setting [3]); 37.7 µM in the experiment with HLA-A*02:03 (setting [3]); 7.51 µM with HLA-A*02:01 (setting [3]).

In the case of LAEYIRHRNT, the 50% inhibitory concentration (IC50) with HLA-A*02:06 (setting [3]) was at least 70 µM; with HLA-A*02:02 (setting [3]), 36.1 µM; with HLA-A*68:02 (setting [3]), 52.4 µM; in the experiment with HLA-A*02:03 (setting [3]) it was 14 µM; in the experiment with HLA-A*02:01 (setting [3]), at least 70 µM.

Regarding LAIKNYYRKT, the IC50 with HLA-A*02:06 (setting [3]) is at least 70 µM; with HLA-A*02:02 (setting [3]), 36.8 µM; with HLA-A*68:02 (setting [3]), 39.7 µM; with HLA-A*02:03 (setting [3]) it was 7.18 µM; with HLA-A*02:01 (setting [3]), at least 70 µM.

As to LAYYNSCML, the concentration for half-maximal inhibition (IC50) is 21.5 µM with HLA-A*02:06 (setting [3]); 12.8 µM with HLA-A*02:02 (setting [3]); 13.3 µM in the experiment with HLA-A*68:02 (setting [3]); 15.5 µM with HLA-A*02:03 (setting [3]); 46.1 µM with HLA-A*02:01 (setting [3]).

Regarding LIISTDQDT, the half-inhibitory concentration (IC50) is at least 70 µM with HLA-A*02:06 (setting [3]); at least 70 µM in the experiment with HLA-A*02:02 (setting [3]); at least 70 µM in the experiment with HLA-A*68:02 (setting [3]); at least 70 µM in the experiment with HLA-A*02:03 (setting [3]); 30.1 µM with HLA-A*02:01 (setting [3]).

Consider LIQYRQQLEL, for which the IC50 is 52.9 µM with HLA-A*02:06 (setting [3]); 32.8 µM with HLA-A*02:02 (setting [3]); at least 70 µM with HLA-A*68:02 (setting [3]); 19.5 µM with HLA-A*02:03 (setting [3]); at least 70 µM in the experiment with HLA-A*02:01 (setting [3]).

Consider LLGLLLLCV, for which the IC50 is 19.1 µM with HLA-A*02:06 (setting [5]); 9.77 µM with HLA-A*02:02 (setting [5]); at least 70 µM with HLA-A*68:02 (setting [5]); 6.77 µM in the experiment with HLA-A*02:03 (setting [5]); 7.37 µM with HLA-A*02:01 (setting [5]).

Consider LLLVVQALR, for which the IC50 was determined as 8.59 µM in the experiment with HLA-A*02:06 (setting [1]); 10.7 µM with HLA-A*02:02 (setting [1]); 60.4 µM in the experiment with HLA-A*68:02 (setting [1]); 34.6 µM in the experiment with HLA-A*02:03 (setting [1]); 10.2 µM with HLA-A*02:01 (setting [1]).

As for LLTHGADPNA, the IC50 with HLA-A*02:06 (setting [3]) is 15.7 µM; in the experiment with HLA-A*02:02 (setting [3]), 9.61 µM; with HLA-A*68:02 (setting [3]), at least 70 µM; with HLA-A*02:03 (setting [3]), 7.51 µM; in the experiment with HLA-A*02:01 (setting [3]), 11.2 µM.

Take LTDVEKRIL: the IC50 is at least 70 µM with HLA-A*02:06 (setting [3]); 27.4 µM in the experiment with HLA-A*02:02 (setting [3]); at least 70 µM with HLA-A*68:02 (setting [3]); 28.5 µM with HLA-A*02:03 (setting [3]); 27 µM with HLA-A*02:01 (setting [3]).

Consider LTGNNTITT, for which the IC50 with HLA-A*02:06 (setting [3]) came out at 8.69 µM; in the experiment with HLA-A*02:02 (setting [3]) it was 5.75 µM; with HLA-A*68:02 (setting [3]) it was 8.24 µM; in the experiment with HLA-A*02:03 (setting [3]), 5.62 µM; in the experiment with HLA-A*02:01 (setting [3]) it was 11.2 µM.

LTNKKYRCMA: the half-inhibitory concentration (IC50) with HLA-A*02:06 (setting [3]) is at least 70 µM; in the experiment with HLA-A*02:02 (setting [3]) it was 34.8 µM; with HLA-A*68:02 (setting [3]), 16.6 µM; with HLA-A*02:03 (setting [3]), 5.4 µM; in the experiment with HLA-A*02:01 (setting [3]) it was at least 70 µM.

The values are drawn from the Immune Epitope Database (IEDB).
